From the nanobody polyreactivity screen of Harvey et al. (2022) come the findings set out here.

The nature of the data set: yeast display, Sf9 membrane polyspecificity reagent, FACS + sequencing; frameworks hold sequencing errors. The method, boiled down: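 Using colony PCR, genes from sorted yeast display clones were amplified, then sequenced on MiSeq at 2 × 250 and filtered by CDR length. The clones had been stained with 10% biotinylated, detergent-solubilized Sf9 membrane reagent for 1 hour at 4 °C and sorted by FACS into low and high (top ~1%) gates on anti-HA and streptavidin fluorescence. Polyreactivity labels come from the gate of origin.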
On to “QVQLVESGGGLVQAGGSLRLSCAASGSTFKNNAMGWYRQAPGKEREFVASISKRGGSTYYADSEKGRFTISRDNAKNTVYLQMNSLKPEDTAVYYCAAEELRYGLYEYDYWGLGTQVTVSS”, for which the “polyreactivity (PSR sort gate)” value is “high polyreactivity”.

On to “QVQLVESGGGLVQAGGSLRLSCAASGSTFKNYVMGWYRQAPGKERELVAAISRSGGRTYYADSVKGRFTISRDNAKNTVYLQMYSLKPEVTAVYYCATPDQVELSSYDYWGEGTQVTVSS”, for which the “polyreactivity (PSR sort gate)” value is on record as “high polyreactivity”.

As to “QVQLVESGGGLVQAGGSLRLSCAASGSTFKPNAMGWYRQAPGKERELVAAITSGSTYYADSVKGRFTISRDNAKNSVYLQMNSLIPEDSAVYYCATSFRGKSPYRNSGSYYFWGQGTQVTVSS”, the “polyreactivity (PSR sort gate)” value is reported as “high polyreactivity”.

Consider “QVQLVESGGGLVQAGGSLRLSCAASGSTFKQYAKGWYRQAPGKERELVAAISSVGRTYYADSVKGRFTISRDNAKNTVYLQINSLKPEDTAVYYCNRRWYTHWGQGTQVTVSS”, for which the “polyreactivity (PSR sort gate)” value was “high polyreactivity”.

On to “QVQLVESGGGLVQAGGSLRLSCAASGSTFKRNAMGWYRQAPGKDRELVAAISFRGGSTYYADSVKGRFTISRDNAKNTVYLQMNSLKPEDTAVYYCAAGIYRIRGGGISFDYWGQGTQVTVSS”, for which the “polyreactivity (PSR sort gate)” value is recorded as “high polyreactivity”.

On to “QVQLVESGGGLVQAGGSLRLSCAASGSTFKRNAMGWYRQAPGKERELVASISKRGGSTYYADSVKGRFTISRDNAKNTVYLQMNSLKPEDTAVYYCAKTWQNGDRNTIGSVYAYYSWGQGTQVTVSS”, for which the “polyreactivity (PSR sort gate)” value is reported as “high polyreactivity”.

As to “QVQLVESGGGLVQAGGSLRLSCAASGSTFKRNAMGWYRQAPVKERELVATITRRGGSTYADSVKGRFTISRDNAKNTVYLQMNSLKAEDTAVYYCARDGFSGGMDYWGQGTQVTVSS”, the “polyreactivity (PSR sort gate)” value is on record as “low polyreactivity”.

Take “QVQLVESGGGLVQAGGSLRLSCAASGSTFKRYAMGWSRQAPGKERECVAGITWRGGRTYYADSVKGRFKISRDIAKNTVYLQMNSLKPEDTSVYYCAATFYTSSHLAGYYWGQGTQVTVSS”: the “polyreactivity (PSR sort gate)” value was “high polyreactivity”.

Regarding “QVQLVESGGGLVQAGGSLRLSCAASGSTFKRYAMGWYRQAPGKDRELVASISSGGSPNYADSVKGRFTISRDNAKNTVYLQMNSLKPEDTAVYYCAVSYRSFRYFWERYSSWGQGTQVTVSS”, the “polyreactivity (PSR sort gate)” value is reported as “high polyreactivity”.

“QVQLVESGGGLVQAGGSLRLSCAASGSTFKRYAMGWYRQAPGKERELVAAITNGDRTNYADSVKGRFTISRDNAKNTVYLHMNSLKPEDTALYYCAAAYSRYTSRFYYWGQGTQVTVSS”: the “polyreactivity (PSR sort gate)” value is on record as “high polyreactivity”.

Consider “QVQLVESGGGLVQAGGSLRLSCAASGSTFKRYAMGWYRQAPGKERELVAAITNGDRTNYADSVKGRFTISRDNAKNTVYLQMNSLKPEDTAVYYCAAAYSRYTSRFYYWGQGTQVTVSS”, for which the “polyreactivity (PSR sort gate)” value is on record as “high polyreactivity”.

In the case of “QVQLVESGGGLVQAGGSLRLSCAASGSTFKRYAMGWYRQAPGKERELVASISRSGGSTYYADSVKGRFTISRDNAKNTVYLQMNSLKPEDTAVYYCNARNRVYYTLSGYGYWGQGTQVTVSS”, the “polyreactivity (PSR sort gate)” value is reported as “high polyreactivity”.

Take “QVQLVESGGGLVQAGGSLRLSCAASGSTFKRYAMGWYRQAPGKERELVASISSGGSTNYADSVKGRFTISRDNAKNTVYLQMNSLKREDTAVYYCAVSYRSFRYYWERYYSWGQGTQVTLSS”: the “polyreactivity (PSR sort gate)” value was “high polyreactivity”.

Turning to “QVQLVESGGGLVQAGGSLRLSCAASGSTFKRYDLGWYRQAPGKERELFAAIRTSGGTTYYADSVKCRFTISRDYAKNNVYLQMNSLKPEDTAVYYCAASKWPRHRTRRYYYWVQGTQVTVSS”, the “polyreactivity (PSR sort gate)” value was “high polyreactivity”.

For the sequence “QVQLVESGGGLVQAGGSLRLSCAASGSTFKRYTMGWYRQAPGKESELVAAISSSGGSTYYADSVKGRFTISRDNAKNTVYLQMNSQKPEDTAVYYCAKGYQRGRDYWGQGTQVTVSS”, the “polyreactivity (PSR sort gate)” value is given as “high polyreactivity”.

“QVQLVESGGGLVQAGGSLRLSCAASGSTFKSYAMGWYRPAPGKERELVAAISSSGGSTYYADSVKGRFTISRDNAKNTVYLQMNSLKPEDTAVYYCNAVWVQGGIGNYWGQGTQVTVSS”: the “polyreactivity (PSR sort gate)” value is recorded as “low polyreactivity”.

Turning to “QVQLVESGGGLVQAGGSLRLSCAASGSTFKTYAMGWYRQAPGKERELVAAITSSGGRTYYADSVKGRFTISRDNAKNTVYLQMNSLKPEDTAVYYCAAGRRSYNQLDYWGQGTQVTVSS”, the “polyreactivity (PSR sort gate)” value is “high polyreactivity”.

For the sequence “QVQLVESGGGLVQAGGSLRLSCAASGSTFKTYTMGWYRQAPGKEREFVAGITSGGSTSYADSVKGRFTISRDNAKNTVYLQMNSLKQEDTAVYYCAAPDGDTSFSDQAYDYWGQGTQVTVSS”, the “polyreactivity (PSR sort gate)” value is given as “low polyreactivity”.

Regarding “QVQLVESGGGLVQAGGSLRLSCAASGSTFKTYVMGWYRQAPGKERELVAGISDSGGTTYYADSVKGRFTISRDNAKNTVYLQMNSLKPEDTAVYFCNAAFGVYVATGDSFPWHKKFGYWGQGTQVTVSS”, the “polyreactivity (PSR sort gate)” value is reported as “high polyreactivity”.

Consider “QVQLVESGGGLVQAGGSLRLSCAASGSTFKVYAMGWYRQAPGKERELVAAISTGGGSTYYADSVKGRFTISRDNAKNTVSLQMNSLKPEDTAVYYCAAVDRYPYAGYYWGQGTQVTVSS”, for which the “polyreactivity (PSR sort gate)” value was “high polyreactivity”.

Take “QVQLVESGGGLVQAGGSLRLSCAASGSTFKYNAMGWYRQAPGKEREFVAAISYSGGSTYYADSVKGRFTISRDYAKNTVYLQMNSLKPEDTAVYYCAAYPWERYTWRYVYRGHDYWGQGTQVTVSS”: the “polyreactivity (PSR sort gate)” value is given as “low polyreactivity”.

As for “QVQLVESGGGLVQAGGSLRLSCAASGSTFKYNAMGWYRQAPGKERELVASISRSGGSTYYADSVKGRFTISRDNAKNTVYLQMNSLKPEDTAVYYCAVRVSSHPVYHYNYWGQGTQVTVSS”, the “polyreactivity (PSR sort gate)” value was “high polyreactivity”.

“QVQLVESGGGLVQAGGSLRLSCAASGSTFKYNTMGWYRQAPGKERELVARISWSGTRTYYADSVKGRFTISRDNAKNTVYLQMNSLKPEDTAVYYCAKVSYFWSPYGYDSWGQGTQVTVSS”: the “polyreactivity (PSR sort gate)” value is recorded as “high polyreactivity”.

With “QVQLVESGGGLVQAGGSLRLSCAASGSTFKYYALGWYRQAPGKERELVAVITSGGSTYYADSVKGRFTISRDNAKNTVYFQMNSLKPEDTAVYYCAAGVRAYNWGEYDYWGQGTQVTVSS”, the “polyreactivity (PSR sort gate)” value was “low polyreactivity”.

Consider “QVQLVESGGGLVQAGGSLRLSCAASGSTFKYYAMGWYRQAPGKERELVAAISGTGGNTYYADSVKGRFTISRDNAKNTVYLQMNSLKPEDTAVYYCAAGFRRGWAYTTYDYWGQGTQVTVSS”, for which the “polyreactivity (PSR sort gate)” value was “low polyreactivity”.

For “QVQLVESGGGLVQAGGSLRLSCAASGSTFKYYTMGWYRQAPGKERELVAAISYSGGSTYYADSVKGRFTISRDNAKNTVYLQMNSLKPEDTAVYYCAALRYADYDYWGQGTQVTVSS”, the “polyreactivity (PSR sort gate)” value is listed as “high polyreactivity”.

As to “QVQLVESGGGLVQAGGSLRLSCAASGSTFLGYAMGWSRQAPGKERELVAAISWSGGSTYYADSVKGRFTISRDNAKNTVYLQMNRLKPEDTAVYYCNAVGYLDFEWGQGTQVTVSS”, the “polyreactivity (PSR sort gate)” value is recorded as “low polyreactivity”.

With “QVQLVESGGGLVQAGGSLRLSCAASGSTFLGYAMGWYRQAPGKERELVAAITYRGTRTYYADSVKGRFTISRDYAKNTVYLQMNSLKPEDTTVYYCAADRYIGTVEYDYWGQGTQVTVSS”, the “polyreactivity (PSR sort gate)” value is given as “high polyreactivity”.

In the case of “QVQLVESGGGLVQAGGSLRLSCAASGSTFLNNAMGWSRQAPGEERELVAAISRRGGNTYYADSEKGRFTISRDNAKNTVSLHMNSLKPEDTAVYYCAADLVWTRYFGYAQDYYIEFDYWGQGTQVTVSS”, the “polyreactivity (PSR sort gate)” value is given as “high polyreactivity”.

With “QVQLVESGGGLVQAGGSLRLSCAASGSTFLNNAMGWYRQAPGKERELVATITSGGITNYADSVKGRFTISRDNAKNTVYLQMNSLKPEDTAVYYCNADTWGFTYYYWGQGTQVTVSS”, the “polyreactivity (PSR sort gate)” value is “low polyreactivity”.
